Source: paper PMC6424611 (Journal of molecular biology, 2019)
Where no end group is shown, it is not given here. [ ]: non-standard residue; d: D form. The star is where a group is joined. Biotin = O=C1N[C@H]2[C@H](CS[C@H]2CCCCC(=O)*)N1; TTDS = NCCCOCCOCCOCCCNC(=O)CCC(=O)*; pS = N[C@@H](COP(=O)(O)O)C(=O)O

T1: MBP-fused PDZ domain of MAST2 (human, UniProt Q6P0Q8 1104-1192)
T1 sequence (looked up): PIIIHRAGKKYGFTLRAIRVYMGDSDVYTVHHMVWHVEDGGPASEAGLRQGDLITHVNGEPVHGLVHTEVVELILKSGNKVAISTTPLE

T2: MBP-fused PDZ domain 3 of PDZD7 (human, UniProt Q9H5P4 862-934)
T2 sequence (looked up): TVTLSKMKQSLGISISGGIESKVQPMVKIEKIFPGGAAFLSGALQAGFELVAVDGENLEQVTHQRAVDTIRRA

T3: MBP-fused PDZ domain of MAST1 (human, UniProt Q9Y2H9 967-1055)
T3 sequence (looked up): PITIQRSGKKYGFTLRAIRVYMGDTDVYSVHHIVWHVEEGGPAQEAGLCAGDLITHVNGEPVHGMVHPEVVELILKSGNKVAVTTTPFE

T4: MBP-fused PDZ domain of SNTG2 (human, UniProt Q9NY99 73-156)
T4 sequence (looked up): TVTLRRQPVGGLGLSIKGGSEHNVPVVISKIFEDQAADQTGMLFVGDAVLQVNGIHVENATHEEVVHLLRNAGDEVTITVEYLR

T5: MBP-fused PDZ domain of SNTB1 (human, UniProt Q13884 112-195)
T5 sequence (looked up): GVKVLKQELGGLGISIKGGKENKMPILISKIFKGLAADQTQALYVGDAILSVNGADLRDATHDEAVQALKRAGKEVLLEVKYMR

B1: biotinylated RSK1 725-735 peptide, phosphorylated at Ser732 (position -3) (peptide, UniProt Q15418 725-735, looked up)
peptide: {Biotin-TTDS}-RRVRKLP[pS]TTL
B2: biotinylated RSK1 725-735 peptide, unphosphorylated (peptide, UniProt Q15418 725-735, looked up)
peptide: {Biotin-TTDS}-RRVRKLPSTTL
B3: PDZ domain 2 of MAGI3 (domain or fragment, human, UniProt Q5TCQ9 410-492, looked up)
chain: RASLKKSTMGFGFTIIGGDRPDEFLQVKNVLKDGPAAQDGKIAPGDVIVDINGNCVLGHTHADVVQMFQLVPVNQYVNLTLCR
B4: MBP-fused PDZ domain 1 of PARD3B (domain or fragment, human, UniProt Q8TEW8 201-289, looked up)
chain: TRTVEISGEGGPLGIHVVPFFSSLSGRILGLFIRGIEDNSRSKREGLFHENECIVKINNVDLVDKTFAQAQDVFRQAMKSPSVLLHVLP
B5: MBP-fused PDZ domain 1 of PDZRN4 (domain or fragment, human, UniProt Q6ZMN7 224-314, looked up)
chain: TIVLERENDTLGFNIIGGRPNQNNQEGTSTEGIYVSKILENGPADRADGLEIHDKIMEVNGKDLSKATHEEAVEAFRNAKEPIVVQVLRRT
B6: RSK1 683-735 peptide, phosphorylated (peptide, UniProt Q15418 683-735, looked up)
peptide: QSQLSHQDLQLVKGAMAATYSALNSSKPTPQLKPIESSILAQRRVRKLPSTTL
modifications: also: monophosphorylated, site not given here

Tests used:
[1] = biological target: B4; assay: SPR
[2] = biological target: B5; assay: SPR
[3] = biological target: B4; assay: holdup assay
PDZ domain 2 of MAGI3 = biological target: B3; assay: holdup assay
[4] = biological target: B5; assay: holdup assay
[5] = biological target: B2; assay: holdup assay
[6] = biological target: B1; assay: holdup assay
[7] = biological target: T1, MBP-fused PDZ domain of MAST2; assay: fluorescence polarisation
[8] = biological target: T2, MBP-fused PDZ domain 3 of PDZD7; assay: fluorescence polarisation
[9] = biological target: T3, MBP-fused PDZ domain of MAST1; assay: fluorescence polarisation
[10] = biological target: B4; assay: fluorescence polarisation
[11] = biological target: MBP-fused PDZ domain of HTRA1 (human, UniProt Q92743 365-467); assay: fluorescence polarisation
[12] = biological target: T4, MBP-fused PDZ domain of SNTG2; assay: fluorescence polarisation
[13] = biological target: T5, MBP-fused PDZ domain of SNTB1; assay: fluorescence polarisation
[14] = biological target: MBP-fused PDZ domain of SNX27 (human, UniProt Q96L92 43-136); assay: fluorescence polarisation
[15] = biological target: MBP-fused PDZ domain 2 of GRID2IP (human, UniProt A4D2P6 279-356); assay: fluorescence polarisation
Sequence of MBP-fused PDZ domain 2 of GRID2IP (A4D2P6 279-356): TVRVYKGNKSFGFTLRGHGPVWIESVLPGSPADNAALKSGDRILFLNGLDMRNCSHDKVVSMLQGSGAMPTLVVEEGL

Sequence of MBP-fused PDZ domain of HTRA1 (Q92743 365-467): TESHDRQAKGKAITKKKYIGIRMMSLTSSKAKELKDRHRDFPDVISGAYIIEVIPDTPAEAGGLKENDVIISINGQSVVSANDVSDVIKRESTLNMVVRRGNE

Kd [1] [µM]	Kd [2] [µM]	Kd [3] [µM]	Kd (PDZ domain 2 of MAGI3) [µM]	Kd [4] [µM]	BI [5]	BI [6]	Binder	also measured
6.1 ± 0.4	7.1 ± 0.9	35.1	40.8	12.6			B1	
4 ± 0.3	0.97 ± 0.18	13.8	40.8	14.4			B2	
					0.28 ± 0.03	0.28 ± 0.06	B3	
					0.52 ± 0.05	0.31 ± 0.02	B4	
					0.51 ± 0.02	0.54 ± 0.03	B5	
							B6	Kd [7]: 48 ± 84 µM; Kd [8]: 46 ± 7 µM; Kd [9]: 92 ± 12 µM; Kd [10]: 31 ± 3.5 µM; Kd [11]: 33 ± 2 µM; Kd [12]: 4.8 ± 1.7 µM; Kd [13]: 4.5 ± 0.3 µM; Kd [14]: 32 ± 5 µM; Kd [15]: 85 ± 11 µM
